Measured values as given in patent publication US20100330100A1.
Where two headings read alike, the source gives them in different places.

How the values were obtained:
Assay in all cases: whole cell ELISA on immobilized PA103 strain, 50 µg/well IgG
[1] = target: PA4710 protein on the cell surface of Pseudomonas aeruginosa PA103 strain (Pseudomonas aeruginosa)
[2] = target: PA4710 protein on the cell surface of Pseudomonas aeruginosa PA103 strain (Pseudomonas aeruginosa); remark: listed apart in the source
[3] = target: PA4710 protein on the cell surface of Pseudomonas aeruginosa PA103 strain (Pseudomonas aeruginosa); remark: listed apart in the source

Work on “negative control IgG fraction purified from control rat sera obtained by administering only adjuvant (antibody)” yielded an absorbance at 450 nm [1] of 0.244 absorbance, an absorbance at 450 nm [2] of 0.092 absorbance and an absorbance at 450 nm [3] of 0.28 absorbance.
